From patent publication US20100291097A1 (AC IMMUNE S A, published 2010) come the findings set out here.

Assay [1] concerns the target Aβ1-42 peptide. The assay can be described thus: cell-based or functional assay.
Assay [2] concerns the target T1, Aβ17-40 peptide, biotinylated (Anaspec) (biotinylated (position not given)).
T1 peptide: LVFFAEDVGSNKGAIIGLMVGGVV
The assay can be described thus: ELISA on longer biotinylated Aβ peptides. From the text: (§1) The peptides in the peptide library were composed of 8, 9 or 10-mer aa peptides. A biotinylated complete Aβ₁₋₄₂ peptide (human sequence) was used as positive control (Bachem, Bubendorf, Switzerland). In addition, longer peptides covering Aβ1-28, Aβ17-40, Aβ1-40 and Aβ₁₋₄₂ were used to define the broader region to which these antibodies may bind. These 4 peptides were also biotinlyated (manufactured by Anaspec and purchased from ANAWA Trading SA, Switzerland). Epitope mapping was done according to the manufacturer's (Mimotopes) instructions. Briefly, Streptavidin coated plates (NUNC, Roskilde, Denmark) were blocked with 0.1% BSA in PBS overnight at 4° C. After washing with PBS-0.05% Tween 20, plates were coated for 1 hour at RT with the different peptides from the library, diluted in 0.1% BSA, 0.1% Sodium Azide in PBS to a final concentration of 10 μM. […] Plates were washed again and incubated with alkaline phosphatase conjugated goat anti mouse IgG (Jackson Immunresearch West Grove, Pa., USA) for 1 h at RT. After final washing, plates were incubated with phosphatase substrate (pNPP, Sigma-Aldrich, St Louis, Mo., USA) and read after 3 hours of incubation at 405 nm using an ELISA plate reader.
A general note: An ELISA detects its analyte on a solid surface through an enzyme-linked reagent.

Assay [3] concerns the target T1, Aβ17-40 peptide, biotinylated (Anaspec). The experiment in a line: ELISA, biotin-peptide on streptavidin, Ab 10 µg/ml; mean of 2, background subtracted.
Source text: as §1

Assay [4] deals with T2, Aβ1-40 peptide, biotinylated (Anaspec) (biotinylated (position not given)).
T2 construct: also called Ab1-40
The assay is described as above.
Source text: as §1

The target in assay [5] is T3, Aβ1-42 peptide, biotinylated (Anaspec) (biotinylated (position not given)).
T3 construct: also called 1-42A
T3 sequence (peptide, as listed by the source): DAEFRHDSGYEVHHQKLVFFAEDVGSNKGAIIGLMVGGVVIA
Described as above.
Source text: as §1

For assay [6], the target named is T4, Biotinylated complete Aβ1-42 peptide (human sequence, Bachem) (human, biotinylated (position not given)).
T4 construct: also called 1-42B; Aβ1-42 (positive control of the peptide library ELISA)
T4 sequence (peptide, as listed by the source): as above
The assay is described as above.
Source text: as §1

Assay [7] concerns the target T4, Biotinylated complete Aβ1-42 peptide …. The assay can be described thus: peptide library ELISA, positive control, Ab 10 µg/ml.
Source text: as §1

Chain of Aβ1-42 peptide (peptide, as listed by the source): as above

B1: ACI-11-Ab-9 monoclonal antibody (antibody, V domains shown)
VH: QVQLQQSDAELVKPGASVKISCKVSGYTFTDHTIHWMKQRPEQGLEWIGYIYPRDGSTKYNEKFKGKATLTADKSSSTAYMQLNSLTSEDSAVYFCARDYGYAFDYWGQGTTLTVSS
VL: QAVVTQESALTTSPGGTVILTCRSSTGAVTTSNYANWVQEKPDHLFTGLIGGTSNRAPGVPVRFSGSLIGDKAALTITGAQTEDDAMYFCALWYSTHYVFGGGTKVTVL
notes: Mouse monoclonal IgG from hybridoma FG1F9E4 (DSM ACC2845); also called clone FG1F9E4
With B1, in assay [1], the “disaggregation of pre-aggregated Aβ1-42, thioflavin T assay, molar ratio 1:10” value came to 52%; the “disaggregation of pre-aggregated Aβ1-42, thioflavin T assay, molar ratio 1:100” value amounted to 22%; the “inhibition of Aβ1-42 aggregation, thioflavin T assay, molar ratio 1:10” value was 69%; the “inhibition of Aβ1-42 aggregation, thioflavin T assay, molar ratio 1:100” value was found to be 34%. The binding result in assay [2] is “no binding (tested: 10 µg/ml)”. In assay [3], this molecule returned an O.D. of 0.02 O.D. The molecule also showed an O.D. in assay [4] of 1.02 O.D. The same molecule gave an O.D. in assay [5] of 0.78 O.D. Besides, in assay [6], the O.D. was found to be 1.54 O.D.

B2: ACI-12-Ab-11 monoclonal antibody (antibody, V domains shown)
VH: QVQLQQSDAELVKPGASVKISCKVSGYTFTDHTIHWMKQRPEQGLEWIGYIYPRDGSTKYNEKFKGKATLTADKSSSTAYMQLNSLTSEDSAVYFCARDYGYAFDYWGQGTTLTVSS
VL: QAVVTQESALTTSPGGTVILTCRSSTGAVTTSNYANWVQEKPDHLFTGLIGGTSNRAPGVPVRFSGSLIGDKAALTITGAQTEDDAMYFCALWYSTHYVFGGGTKVTVL
notes: Mouse monoclonal IgG from hybridoma FK2A6A6 (DSM ACC2846); also called ACI-12-Ab-11 (clone: FK2A6A6); clone FK2A6A6
Take B2: in assay [1], the “disaggregation of pre-aggregated Aβ1-42, thioflavin T assay, molar ratio 1:10” value worked out at 54%. For the same molecule, the “disaggregation of pre-aggregated Aβ1-42, thioflavin T assay, molar ratio 1:100” value in assay [1] came to 18%. Besides, the “inhibition of Aβ1-42 aggregation, thioflavin T assay, molar ratio 1:10” value in assay [1] stood at 66%. For the same molecule, in assay [1], the “inhibition of Aβ1-42 aggregation, thioflavin T assay, molar ratio 1:100” value was 30%. The O.D. in assay [7] was 0.69 O.D; in assay [3], -0.02 O.D; in assay [4], 0.62 O.D; in assay [5] it was 0.44 O.D; in assay [6], 1.07 O.D.
